Experimental data: PMC7287156
Several values for one entry are separate records, joined by “and”; a condition that tells them apart may be missing. Identical values can stand only once.

Assays:
[1] = target: Catechol 1,2-dioxygenase from Pseudomonas stutzeri GOM2 (Pseudomonas stutzeri GOM2); test: SEC + other: dynamic light scattering; 50 mM glycine-NaOH pH 8.5 with 700 mM NaCl (seawater salinity); SEC on Superdex 200; DLS at 1 mg/mL, 40 °C
[2] = target: Catechol 1,2-dioxygenase from Pseudomonas stutzeri GOM2 (Pseudomonas stutzeri GOM2); test: native gel or EMSA; 10% acrylamide gel under non-denaturing conditions, no SDS or reducing agents; the dimer and trimer samples from SEC mixed and loaded together
[3] = target: Catechol 1,2-dioxygenase from Pseudomonas stutzeri GOM2 (Pseudomonas stutzeri GOM2); test: SEC; HiLoad 26/60 Superdex 200, 50 mM glycine-NaOH pH 8.5, no NaCl; 500 uL of protein at 20 mg/mL; mass from calibration with standard proteins

stoichiometry N [1]: 2
stoichiometry N [2]: 2 and 3
stoichiometry N [3]: 3
Substance: Catechol 1,2-dioxygenase from Pseudomonas stutzeri GOM2 (enzyme)
